# Measured values: the Immune Epitope Database (IEDB)
# Assays:
# Test in all cases: IEDB peptide-MHC binding, purified MHC/competitive/radioactivity; ≥ and ≤ were set here for values at or beyond the usual limits of such assays
# Conditions in all cases: source organism: Bordetella pertussis
# HLA-B*44:03 = molecular target: HLA-B*44:03
# HLA-B*07:02 = molecular target: HLA-B*07:02
# HLA-B*53:01 = molecular target: HLA-B*53:01
# HLA-B*57:01 = molecular target: HLA-B*57:01
Sequence,IC50 (HLA-B*07:02),IC50 (HLA-B*53:01),further results
AQGKALLYR,–,–,IC50 (HLA-B*44:03): ≥ 70.1 µM
GATRAVDSL,69.6 µM,–,–
MHTIASILL,–,7.4 µM,–
PASANTLLL,15.7 µM,–,–
RASASRARI,–,–,IC50 (HLA-B*57:01): ≥ 70.4 µM
RVAPPAVAL,0.349 µM,–,–
SGEGRVNIG,–,3.18 µM,–
VVETAQPLP,–,69.9 µM,–
WTFHAGYRY,–,–,IC50 (HLA-B*57:01): 1.4 µM
